{"source": "patent US20200165313A1", "about": "“EGF(A) ANALOGUES, PREPARATION, FORMULATIONS AND USES THEREOF” (Novo Nordisk A/S, priority 2017, published 2020)", "molecular_target": "hPCSK9 (Sino Biologicals, China) (human) (UniProt Q8NBP7)", "assay": "cell-based or functional assay"}
{"substance": "Alirocumab (antibody)", "values": [{"measurement": "hepatic LDL-R expression, Percentage of baseline (%), mouse hPCSK9 challenge, inhibitor 22 nmol/kg", "value": 157, "unit": "%"}]}
